From the supplement of paper PMC9112550, “Optimization of the antimicrobial peptide Bac7 by deep mutational scanning” (BMC Biology, 2022)

Tested on: Escherichia coli TOP10
Experiment: shrunken log2 fold change of peptide-encoding DNA abundance (4.5 h post-induction vs induction); higher = less antimicrobial activity (less host growth inhibition)
Conditions: time post-induction: 4.5 h; library: site-saturation at positions 5, 18, 19, 20
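Note: peptides expressed intracellularly from a pBAD plasmid library in pooled LB shake-flask culture, induced with 0.3% L-arabinose, DNA abundance read by NGS, three biological replicates, DESeq2 with apeglm shrinkage.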

| Sequence | shrunken log2 fold change |
| --- | --- |
| RRIRYRPPRLPRPRPRPHVMPRP | -0.644 |
| RRIRYRPPRLPRPRPRPHVPPRP | -0.277 |
| RRIRYRPPRLPRPRPRPHVRPRP | -0.202 |
| RRIRYRPPRLPRPRPRPHWDPRP | -0.92 |
| RRIRYRPPRLPRPRPRPHYMPRP | -1.45 |
| RRIRYRPPRLPRPRPRPHYNPRP | -1.18 |
| RRIRYRPPRLPRPRPRPHYVPRP | -0.208 |
| RRIRYRPPRLPRPRPRPIDFPRP | -0.245 |
| RRIRYRPPRLPRPRPRPIDNPRP | -0.542 |
| RRIRYRPPRLPRPRPRPIELPRP | -0.0405 |
| RRIRYRPPRLPRPRPRPIFQPRP | -0.568 |
| RRIRYRPPRLPRPRPRPIIHPRP | -1.21 |
| RRIRYRPPRLPRPRPRPIKLPRP | -0.126 |
| RRIRYRPPRLPRPRPRPILYPRP | -0.679 |
| RRIRYRPPRLPRPRPRPINDPRP | -0.0981 |
| RRIRYRPPRLPRPRPRPIPFPRP | -1.53 |
| RRIRYRPPRLPRPRPRPIRPPRP | -0.129 |
| RRIRYRPPRLPRPRPRPIRYPRP | -0.00146 |
| RRIRYRPPRLPRPRPRPISRPRP | -0.113 |
| RRIRYRPPRLPRPRPRPISVPRP | -0.534 |
| RRIRYRPPRLPRPRPRPITDPRP | -0.162 |
| RRIRYRPPRLPRPRPRPIVIPRP | -0.0448 |
| RRIRYRPPRLPRPRPRPIWVPRP | -0.0696 |
| RRIRYRPPRLPRPRPRPIYAPRP | -0.461 |
| RRIRYRPPRLPRPRPRPIYFPRP | 0.548 |

| Sequence | shrunken log2 fold change |
| --- | --- |
| RRIRYRPPRLPRPRPRPIYSPRP | -0.143 |
| RRIRYRPPRLPRPRPRPKARPRP | 0.0182 |
| RRIRYRPPRLPRPRPRPKDMPRP | 0.0203 |
| RRIRYRPPRLPRPRPRPKFPPRP | -1.01 |
| RRIRYRPPRLPRPRPRPKHRPRP | 0.0727 |
| RRIRYRPPRLPRPRPRPKLKPRP | -0.0928 |
| RRIRYRPPRLPRPRPRPKLQPRP | 0.124 |
| RRIRYRPPRLPRPRPRPKNFPRP | -0.663 |
| RRIRYRPPRLPRPRPRPKNPPRP | -0.315 |
| RRIRYRPPRLPRPRPRPKPIPRP | 0.0874 |
| RRIRYRPPRLPRPRPRPKQFPRP | -0.155 |
| RRIRYRPPRLPRPRPRPKQMPRP | 0.0213 |
| RRIRYRPPRLPRPRPRPKQVPRP | 0.234 |
| RRIRYRPPRLPRPRPRPKSIPRP | -0.0776 |
| RRIRYRPPRLPRPRPRPKTNPRP | -0.516 |
| RRIRYRPPRLPRPRPRPKTTPRP | -0.0197 |
| RRIRYRPPRLPRPRPRPKVGPRP | 0.0316 |
| RRIRYRPPRLPRPRPRPKVHPRP | -0.677 |
| RRIRYRPPRLPRPRPRPKWLPRP | -0.221 |
| RRIRYRPPRLPRPRPRPKYMPRP | -0.998 |
| RRIRYRPPRLPRPRPRPLAQPRP | -0.17 |
| RRIRYRPPRLPRPRPRPLCWPRP | -0.264 |
| RRIRYRPPRLPRPRPRPLEAPRP | 0.0153 |
| RRIRYRPPRLPRPRPRPLEDPRP | -0.00931 |
| RRIRYRPPRLPRPRPRPLFRPRP | -0.66 |

| Sequence | shrunken log2 fold change |
| --- | --- |
| RRIRYRPPRLPRPRPRPLHFPRP | -0.0434 |
| RRIRYRPPRLPRPRPRPLHGPRP | -0.0615 |
| RRIRYRPPRLPRPRPRPLHNPRP | -0.507 |
| RRIRYRPPRLPRPRPRPLHYPRP | -1.53 |
| RRIRYRPPRLPRPRPRPLITPRP | -0.749 |
| RRIRYRPPRLPRPRPRPLKFPRP | -0.42 |
| RRIRYRPPRLPRPRPRPLKIPRP | -0.134 |
| RRIRYRPPRLPRPRPRPLLAPRP | -0.197 |
| RRIRYRPPRLPRPRPRPLLEPRP | -0.17 |
| RRIRYRPPRLPRPRPRPLMDPRP | -0.143 |
| RRIRYRPPRLPRPRPRPLMLPRP | -1.32 |
| RRIRYRPPRLPRPRPRPLPQPRP | -0.0827 |
| RRIRYRPPRLPRPRPRPLPTPRP | -0.0873 |
| RRIRYRPPRLPRPRPRPLRCPRP | 0.0617 |
| RRIRYRPPRLPRPRPRPLSKPRP | -1.03 |
| RRIRYRPPRLPRPRPRPLVNPRP | -1.09 |
| RRIRYRPPRLPRPRPRPLWCPRP | -0.125 |
| RRIRYRPPRLPRPRPRPLWEPRP | -0.369 |
| RRIRYRPPRLPRPRPRPLYAPRP | -1.49 |
| RRIRYRPPRLPRPRPRPLYQPRP | -0.13 |
| RRIRYRPPRLPRPRPRPLYVPRP | -0.465 |
| RRIRYRPPRLPRPRPRPMCGPRP | -0.17 |
| RRIRYRPPRLPRPRPRPMGKPRP | -0.452 |
| RRIRYRPPRLPRPRPRPMGRPRP | -0.117 |
| RRIRYRPPRLPRPRPRPMGVPRP | -0.762 |

| Sequence | shrunken log2 fold change |
| --- | --- |
| RRIRYRPPRLPRPRPRPMHGPRP | 0.00652 |
| RRIRYRPPRLPRPRPRPMIAPRP | -0.188 |
| RRIRYRPPRLPRPRPRPMIIPRP | -0.138 |
| RRIRYRPPRLPRPRPRPMIWPRP | -0.00195 |
| RRIRYRPPRLPRPRPRPMKTPRP | -0.0156 |
| RRIRYRPPRLPRPRPRPMLAPRP | -0.269 |
| RRIRYRPPRLPRPRPRPMLDPRP | -0.467 |
| RRIRYRPPRLPRPRPRPMLEPRP | 0.0653 |
| RRIRYRPPRLPRPRPRPMLNPRP | -0.892 |
| RRIRYRPPRLPRPRPRPMLRPRP | -0.256 |
| RRIRYRPPRLPRPRPRPMMKPRP | -0.0161 |
| RRIRYRPPRLPRPRPRPMMSPRP | -0.322 |
| RRIRYRPPRLPRPRPRPMMWPRP | 0.00408 |
| RRIRYRPPRLPRPRPRPMQIPRP | -6.27e-05 |
| RRIRYRPPRLPRPRPRPMQQPRP | -0.0118 |
| RRIRYRPPRLPRPRPRPMSTPRP | -0.0213 |
| RRIRYRPPRLPRPRPRPMWHPRP | -0.156 |
| RRIRYRPPRLPRPRPRPNARPRP | -0.0675 |
| RRIRYRPPRLPRPRPRPNDLPRP | 0.018 |
| RRIRYRPPRLPRPRPRPNECPRP | 0.0256 |
| RRIRYRPPRLPRPRPRPNFFPRP | -0.074 |
| RRIRYRPPRLPRPRPRPNFIPRP | -1.22 |
| RRIRYRPPRLPRPRPRPNFRPRP | -0.425 |
| RRIRYRPPRLPRPRPRPNGDPRP | -0.112 |
| RRIRYRPPRLPRPRPRPNGMPRP | -0.0465 |

| Sequence | shrunken log2 fold change |
| --- | --- |
| RRIRYRPPRLPRPRPRPNHFPRP | -0.0628 |
| RRIRYRPPRLPRPRPRPNHHPRP | -1.19 |
| RRIRYRPPRLPRPRPRPNIMPRP | -1.42 |
| RRIRYRPPRLPRPRPRPNKLPRP | -0.987 |
| RRIRYRPPRLPRPRPRPNLAPRP | -0.0223 |
| RRIRYRPPRLPRPRPRPNLDPRP | -0.148 |
| RRIRYRPPRLPRPRPRPNLLPRP | -0.213 |
| RRIRYRPPRLPRPRPRPNMAPRP | -0.00884 |
| RRIRYRPPRLPRPRPRPNMEPRP | -0.618 |
| RRIRYRPPRLPRPRPRPNMLPRP | -1.22 |
| RRIRYRPPRLPRPRPRPNNFPRP | -0.418 |
| RRIRYRPPRLPRPRPRPNNTPRP | -1.32 |
| RRIRYRPPRLPRPRPRPNPVPRP | 0.000723 |
| RRIRYRPPRLPRPRPRPNQKPRP | -0.0988 |
| RRIRYRPPRLPRPRPRPNRKPRP | -0.284 |
| RRIRYRPPRLPRPRPRPNSEPRP | -0.589 |
| RRIRYRPPRLPRPRPRPNSKPRP | -0.875 |
| RRIRYRPPRLPRPRPRPNTKPRP | -0.0891 |
| RRIRYRPPRLPRPRPRPNTTPRP | -0.114 |
| RRIRYRPPRLPRPRPRPNVSPRP | -0.0178 |
| RRIRYRPPRLPRPRPRPNYGPRP | -0.0594 |
| RRIRYRPPRLPRPRPRPNYLPRP | -0.161 |
| RRIRYRPPRLPRPRPRPPAEPRP | 0.569 |
| RRIRYRPPRLPRPRPRPPATPRP | 0.407 |
| RRIRYRPPRLPRPRPRPPAVPRP | -0.143 |

| Sequence | shrunken log2 fold change |
| --- | --- |
| RRIRYRPPRLPRPRPRPPEMPRP | 0.123 |
| RRIRYRPPRLPRPRPRPPEVPRP | -0.142 |
| RRIRYRPPRLPRPRPRPPFQPRP | -0.22 |
| RRIRYRPPRLPRPRPRPPINPRP | -0.378 |
| RRIRYRPPRLPRPRPRPPKHPRP | -0.165 |
| RRIRYRPPRLPRPRPRPPKKPRP | -0.0754 |
| RRIRYRPPRLPRPRPRPPKLPRP | -0.172 |
| RRIRYRPPRLPRPRPRPPLEPRP | 0.119 |
| RRIRYRPPRLPRPRPRPPLFPRP | -0.0411 |
| RRIRYRPPRLPRPRPRPPMFPRP | -0.806 |
| RRIRYRPPRLPRPRPRPPMHPRP | -0.418 |
| RRIRYRPPRLPRPRPRPPMLPRP | -0.492 |
| RRIRYRPPRLPRPRPRPPMNPRP | -0.728 |
| RRIRYRPPRLPRPRPRPPMVPRP | -0.35 |
| RRIRYRPPRLPRPRPRPPNFPRP | 0.0401 |
| RRIRYRPPRLPRPRPRPPQAPRP | 0.114 |
| RRIRYRPPRLPRPRPRPPQYPRP | -0.795 |
| RRIRYRPPRLPRPRPRPPRFPRP | 0.0549 |
| RRIRYRPPRLPRPRPRPPRRPRP | 0.261 |
| RRIRYRPPRLPRPRPRPPSDPRP | -0.185 |
| RRIRYRPPRLPRPRPRPPSLPRP | 0.289 |
| RRIRYRPPRLPRPRPRPPTVPRP | -0.146 |
| RRIRYRPPRLPRPRPRPPWIPRP | -0.447 |
| RRIRYRPPRLPRPRPRPQAMPRP | -0.418 |
| RRIRYRPPRLPRPRPRPQATPRP | -0.108 |
